Assay: soluble on expression in E. coli; label from the status in PepcDB or PDB records

Row | Sequence | soluble on expression in E. coli
1 | MGGCCSQEGCNTRPRYLPLKCYPGLPMRATRRLDLSAVERALREVQGRFAELSQHFTEPRDPFTDEVLLNVVEGYALIDDYVARGIDLFDLQQLNLMLEINATVLCGSDPARRLEFAPHLAATEAHFFNNVEGGIKDLYNWYCAYRSDSIWKRAAGVYVRILSKPQLFIEGNNRTGSLIVSYLLMRAGLPPFVLSLDNAEGYFNPSSVIRNSAKHGVKALYELPKIKKKYAAFLEAKAPEPGKFFLNGTPVPACEGSRLEHHHHHH | soluble
2 | MHKNREKNAMRREVNRADIGGKSGNKVKDCHVTIIRSLLSQIKENSLRVLLTYRKLFTINTKIAVEFIINSCIVYYKRSPHLL | not soluble
3 | MLPFFKELQTCTEMLEKNPQDATALFQKAVLLYKARRFEAALQLIEQVLEIVPDDFRVWYNRGVVLSEMGRLEDALAAYDRVIELEPVFEMAWDNKGVVLARLGRFEEALETYEKVLLRNPKYAEAWAGKGSVLSALDRKEEALEAYLSALKIRPDYLEALKSVGSLFSRLGRYEEALAAYDTALQAAPEAPELWAGRGLVLSELDRQEEALQSCSRALELKPGFAPALEVKVKILSEIGRQKARASQLEHHHHHH | soluble
4 | MVKEPGGKHVLCVGAAVLDTLFRVADMPKGEGKVLPYEVLQIAEGMASSAAYAVHRMGGRASLWGAVGDDETGTRILRDLSESGIDTSGMTVAPGARSALSTIIIDNRGERLIVPFYDHRLHEKKRACTPEDIALFDAVLVDVRWPELALDVLTVARALGKPAILDGDVAPVETLEGLAPAATHIVFSEPAATRLTGLETVKDMLPVLHARYPQTFIAVTAGPAGCWWTEADDPTVHFQTTMQVEAVDTLAAGDIFHGTFALAMAEGMQSRAAVRLSSVAAALKCTVFGGRIGAPTREETEEAMRQWLERESEPALRAS | soluble
5 | SLYCIEEKIEKALGIKEASLVLKNCNIVNVFSSEIIRGDLAIDGDTIIGIGKYKGKTEIDLSNKYVAPGFIDSHVHIESSMVSPKEFARAVISRGTTTIIVDPHEIANVCGMDGIKYMMEETKNMPLDVFFMLSSCVPATSFETSGAVLKAEDLKELIDSDRVLGLGEMMNYPGVLSREEEVLNKLKLAGSYNKIVDGHAPSVRGNELNAYNLAGIKTDHECSSIEEMNEKIRNGMYIAIREGSAAKNLDILIKGVNAKNERRIMFCADDRHPDDILKSGHMDNCVRRAIYNGIENTAAIRMASINAAECYKLERVGAIAPSYKADLVVLEDLKDVKVNMVIKSGEVVFKDNKHLKDMGSKSDITKVSNTVNIKKVSEENLELKLDTDVCSIISVALNSISTKNVKRKVNLSNGIFKCELNYGINKVAVIERHKKSGSIGIGLVENFGLKRGAIASTVAHDSHNIIVLGNNDEDMVKAVNEIERVGGGITISLDGKIIETLELEIAGLMSNKSMEFVAERVSKMINICHNTLGVNKDIQPFMTLAFLALPVIPEIRITDKGVFDVVNFKFL | soluble
6 | MVITLSRLYVHPVKSMRGLQLSHAQVSRSGLAFDRVFMITEPDGMFITARQYPKMVMFTPALMADGLYLTAPDGESASIRFNDFLANPAPTEVWGNHFTALIAPEAINSWLSGYFQRDVQLRWVGTELTRRVKPLPEVPLSFADGFPYLLINEASFKDLQQRCPASIKLEQFRPNLVITGTTAFAEDCWQVIRIGDITFDLVKPCSRCVLTTVSVERGQKHPAGEPLRTLQTFRTAENGDVDFGQNMVARNSGIIRVGDEVEVLITKPPRPYGAGAVVESLSAPQDQSKTVSIEYNGIRFNGNNQQILLEQLEQQNIRIPYSCRAGICGSCRVTLLTGDVAALKKSAVGNDGTILCCSCIPKGDISLSGK | not soluble
7 | EVQLLESGGGLVQPGGSLRLSCAASGFTFEEYAMLWVRQAPGKGLEWVSGINARGYTTYYADSVKGRFTISRDNSKNTLYLQMNSLRTEDTAVYYCAKPWYPFMASKGSEFDYWGQGTLVTVSSAAALEIKRASQPELAPEDPEDVEHHHHHH | soluble
8 | MKVLTVFGTRPEAIKMAPLVHALEKDPHFEAKVCVTAQHREMLDQVLTLFSIVPDYDLNIMQPGQGLTEITCRILEGLKPILADFKPDVVLVHGDTTTTIATSLAAFYQRIPVGHVEAGLRTGDLYSPWPEEANRTLTGHLAMYHFAPTENSRQNLLRENIPDERIFVTGNTVIDALIWVRDRVLTSDTLQAELAEQYPFLNANKKMILVTGHRRESFGQGFEHICQALAEIAAANQNVQIVYPVHLNPNVSEPVNRILGHVENVVLIEPQDYLPFVWLMNHAWLILTDSGGIQEEAPSLGKPVLVMRETTERPEAITAGTVRLIGTDSRRIVAEVMRLLHDENEYQTMSRAHNPYGDGQSCARILQALKSYRVSL | not soluble
9 | MIVRTLLDTDLYKFTTSYAYIKLFPYAMGTFSFNDRNETEYTEEFLEALKSEFNKLSRLRLTEEELEYMTRNCRFLPRVYWEWLSSFRFDPDKIDIHLDTTGRLHIEVSDFLYKVTLYEVPLLAIVSEIKNKFFGNVPDMSEILCKLSEKVELSNQHQLRFSEFGTRRRFSIDVQETVIKRLNDTAKYCTGTSNCYFAMKYGMKMMGTHPHEWFMFHGAQFGYKHANYMALENWVNVYDGDLGIALSDTYTSGIFLSNLSRKQAKLFDGVRCDSGNEFDFIDKLVARYKELGIDATTKTIVFSNALDFTKALEIQEYCKDKIRCSFGIGTNLTNDTGFAPSNIVMKLTQCKMNVNQEWRECIKLSDDEGKHTGSPEEVQACLYELRLAKLEHHHHHH | soluble
10 | MIPVKFKGATFGRLVKLEFEILRLGELKIDDISEFNTKDIKLEIRATSSGIKLIGVWEGDISEVGEAIKRALDESMKLRERLLRKMRNKVERIRKTLTEMGFSEESIGYGDAIRFTKRIGEYEVAIVVSSRDDIVRVEVYGGNKKLLAPELEAFFESVDIEELEIYDVDEDGREERVVINLELPKTDEKPEKRIIEAVKVLENILMA | soluble
11 | MSLTYEKLYELRQTLRPTTKDGLYTDNEKNREILTVRWSGNTENPKNFSAVAIGINPSKANDERSDKTLTQLARFLDMYGFTNFKMLNIFSSYSTQQTGIRANTQTDFSKFKGCLEDADMIILAWGTDRGAYKDEKNRILEFLKAEKFMEKVFCISETGNSSDTRHPSRISYSYQLVQFEESAEGGSHHHHHH | soluble
12 | MGHHHHHHSHMASSTSLPAPGSRPKKPLGKMADWFRQTLLKKPKKRPNSPESTSSDASQPTSQDNPLPPSLSSVTSPSLPPTHASDSGSSRWSKDYDVCVCHSEEDLVAAQDLVSYLEGSTASLRCFLQLRDATPGGAIVSELCQALSSSHCRVLLITPGFLQDPWCKYQMLQALTEAPGAEGCTIPLLSGLSRAAYPPELRFMYYVDGRGPDGGFRQVKEAVMRCKLLQEGEGERDSATVSDLL | soluble
13 | MGSDKIHHHHHHMPYSLHLPGYSIGDNAYEKIDAIVSTYGSSVAVIGGKTALEKSRPRLEAALAHSGIEVVDWIVYGHNCTYERVDALCGMPTVQQADMIFGVGGGRAVDTVKVVANRLGKPLFAFPTLGSNCAAATNLSVVYKDDDSLAGYDFQRGPCHHVFIDTTVIAQSPAELLWAGIADGMSKECEVKLQSRGRNLSHAPLMGRNVCSAVTPALMDFGLQALEDCRAGRSSQAIEEVALAIIMTCGYVSNMAVDPGQAYYYNSSLAHAFYNSSTAFPECVGKHLHGEIVSYGVLALLQYDGDMETKRRYVEFYKQMGFPLTLADLDLQESDIPELVSHVPATTEWKTGDFDLERFAQAIIDAQVFA | not soluble
14 | MEPGLDGGYLLLGVDWAINDKGDTVYRPVGLPDPDKVQRDLASQCASMLNVALRPEMQLEQVGGKTLLVVYVPEADVTHKPIYKKATGLPGGAYRRIGSSDQRCVDEDLWVLRGLEHHHHHH | not soluble
15 | MPSSNSVVPPFDARNLEIKTKSIEQTLIPLVTQITTLVNYKESYMASGKPKSERAMRAALKIGSAVEAAIERFVCVGETIADENADIQPEMYDACTEARLAGASMANLSCACNDDPNSVVDKAVLVRASRQLLSSVTRVLLLADRVLVKQVLRAEDKIAFSLSRLESTRSFNDFVKVFAVFGGEMVELAHRSGDRQHDLKSEKRKAQMSIARTSLERLTMLLLTASKTYLRHPDCDSALQCRDGVFYQMKLSLELIAICVCDGILTTEKSRYIQDEPDMPIDIALQLTANAAIKQLTEMLEMIRMTVRVGAGVRERIVSALDALCQLTQDFTDSAYTPHHQREQILDFLEECRFEMTNLIQPDENEQLAASGLEVTVERLNRRLKDLSKQLQIVAMEQISEVLRANEDQVLLSSMKACAVSGDIDGVEKYMHKFREHADHMQEVCRLLHHISITDALHVHTGHVERNMRALAPLTILAGRTLCVHPSSRIARENLEVFCDTWGQAVNDLSRVAKESDVAANGRVAAEKQAYMSLPRPGVSKSSCRRSVPKHDAASSSSSNELLPNGGRHPKQVGIAPTRVVSQTGDEASSDEEQVDKQEIEAFQYRISLIIDDLQSDVEGGTHGR | not soluble
16 | MRIFEPGLCSVTFRSLSPQAVIDLAVANGIRAIEWGADIHVPAGDLENARDVAERTAKAGLAVSSYGSYIFAPDFTRKDLTAVLETAKALGTGHIRIWPGQRKRPSTDYSPAERRTATEALAEIARQAQDYDMTIGLEYHPNSLTDTLPSALQLAQDLALPNLFFYWQPAPGLPLEKALAEISKIGSRVCHLHIFAWLADTNRLPLADRVDYWQSCVEALPESEWTKPAYAMLEFVKGDDVGQFAEDAVTLSEILAGHRVADLEHHHHHH | soluble
17 | MSLSHLVVFDLDGTLTRQRGGFELLHTLYGTTPEAETLMNRFEAGEITFTEWCQGAVDMWRANDITRSDITRATRALKPKAGAVDLLAHLQQTDIRFGILSAGVANLAARFEPYEPAFVRGNWLQFEDRRVSAIDIGVGPNEKGELLRKIRSKQNPVSITYIGDSHTDTEAFIEADTAVLFDPDERVPETAIDAADTIIESADIAEVQNCIPTEGHHHHHH | not soluble
18 | LIIFVFGYYLAFNQNKYVSYNDETKQFVHTDTSKIMENLVNRQQGIYYFGFPTCPWCLELLPILDKELEKESMNAYAVNTRGDDYTENDDELLQKFYQKYTGDESLSVPFIVAINNKKEVQVHIGTVKNHDATKTKLKRRQKE | not soluble
19 | RRAKALLDFERHDDDELGFRKNDIITIISQKDEHCWVGELNGLRGWFPAKFVEVLDERSKEYSIA | soluble
20 | MQALYQLSATGAQQQNQQIPIGLSNSLLYQQLAAHQQIAAQQHQQQLAVSAAHQTQNNIMLATSAPSLINHMENSTDGKVKDDPNSDYDLQLSIQQQLAAAAQAAQMGQTQIGPQIVGQQGQPVVATTAGSTNGSAAVTQPDPSTSSGPDGPKRLHVSNIPFRFRDPDLKTMFEKFGVVSDVEIIFNERGSKGFGFVTMERPQDAERARQELHGSMIEGRKIEVNCATARVHSKKVKPTGGILDQMNPLMAQSALAAQAQMNRALLLRSPLVAQSLLGRGAALIPGMQQPAFQLQAALAGNPLAQLQGQPLLFNAAALQTNALQQSAFGMDPAAVQAALLANEQARFQLAAAAAQGNEYIMYHQAKQQELPGRIPSSGNASAFGEQYLSNALATASLPSYQMNPALRTLNRFTPY | not soluble
21 | MLDDCEASGFINDKRYAELLVRSNIARGHGPIRIRQAIAQKGLTKDCIEAALIATDYDWFELAKAKAKAKAIKKYGVPKVTEVKGSQSRELIAKEKAKRVRFLLSQGFSYEQVIYALDYDPLEDNDD | not soluble
22 | MICCLGPRGSYSEKAAVTFSKAINDSEIQFEDSIYNVFKAVETNPEFFGVVPSENSIGGSVSITQDLLLEFPVKILGEVDISINHCLLGYDIKKVTEVLAHPQALAQCGHYITKNNWNITPVDSNAKAAKIVSEEKDEKLAAICGVENAEIYGLNVLDEYIQDFKNNTTRFFLICNKNK | not soluble
